Data: article PMC6751169
Blank lines part the entries; values can stand above or below the substance they belong to.

What was measured:
[1] = biological target: CrtERD-YFP (geranylgeranyl diphosphate synthase, CrtE-RIDD, fused with yellow fluorescent protein) (UniProt P10644); assay: FRET or BRET; lifetime-based FRET (two-photon FLIM) in living E. coli cells; CFP donor excited at 810 nm, signal collected at 481 nm; strain Car2f against control strain Car1f
[2] = biological target: MenDRA2 (MenD-RIAD-RIAD with two sequential RIAD peptide tags) (E. coli); assay: transmission electron microscopy; TEM of the SEC-purified Assemblies A, B and C; two-dimensional single-particle analysis on Assembly B
[3] = biological target: MenDRA (MenD-RIAD with one RIAD peptide tag) (E. coli); assay: as above
[4] = biological target: MenDRD (MenD-RIDD with one RIDD peptide tag) (E. coli | not stated); assay: as above
[5] = biological target: MenDRD (MenD-RIDD with one RIDD peptide tag) (E. coli | not stated); assay: SEC; 1.5 mg of enzyme fused with RIAD mixed with two-fold molar excess of enzyme fused with RIDD in Tris buffer pH 7.8, 1 mM EDTA, 0.02% Tween-20, no incubation; Superdex 200 10/300 GL, 0.4 mL/min, Tris pH 7.8, 50 mM NaCl; masses from a calibration curve

FRET efficiency E [1]: 29%
Substance: IdiRA-CFP (isopentenyl diphosphate isomerase, Idi-RIAD, fused with cyan fluorescent protein) (enzyme)

stoichiometry N [2]: 4
Substance: MenDRA2 (MenD-RIAD-RIAD with two sequential RIAD peptide tags) (enzyme)

stoichiometry N [3]: 4
Substance: MenDRA (MenD-RIAD with one RIAD peptide tag) (enzyme)

stoichiometry N [4]: 4
Substance: MenDRD (MenD-RIDD with one RIDD peptide tag) (from UniProt P10644 1-44) (enzyme)

stoichiometry N (MenH per 4 MenD (per particle)) [5]: 2
Substance: MenHRA (MenH-RIAD with one RIAD peptide tag) (enzyme)
